Stoichiometry N, binding result and Kd data for 3 molecules are collected here from PMC4660055.

As a reminder, the stoichiometry N is the number of molecules, sites or subunits per partner or assembly. For orientation: Kd means the constant that tells how readily two partners part at equilibrium.

Data set [1] addresses PmrA (double-substitution W181G/I220D variant), BeF3^−-activated (Klebsiella pneumoniae). Briefly: crystal structure; BeF3^−-activated PmrA dimer mixed 1:1 with 25-bp or 26-bp pbgP promoter DNA in 20 mM Tris-HCl pH 8.0, 100 mM NaCl, 2.65 mM BeF3^−; three copies of the complex (complex-1, -2, -3) in two crystal forms.
Data set [2] deals with T1, PmrA (double-substitution variant) (Klebsiella pneumoniae, UniProt W9BNR5 1-223, W181G;I220D).
T1 sequence: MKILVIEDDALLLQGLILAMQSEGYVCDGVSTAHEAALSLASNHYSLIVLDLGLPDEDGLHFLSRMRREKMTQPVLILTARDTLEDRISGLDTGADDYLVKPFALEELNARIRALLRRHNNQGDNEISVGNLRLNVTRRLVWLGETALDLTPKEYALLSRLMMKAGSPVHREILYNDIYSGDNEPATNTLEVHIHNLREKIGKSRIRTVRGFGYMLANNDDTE
Briefly: X-ray crystallography (3.8 A); BeF3-, Mg2+; FP: 10 mM sodium phosphate, 15 mM NaCl, pH 7.0, 298 K, 6 nM FAM-DNA; proteins activated with 5.3 mM BeCl2, 35 mM NaF, 7 mM MgCl2. NMR: 20 mM Tris-HCl, 100 mM Na.

The target in data set [3] is T2, PmrA N188A (Klebsiella pneumoniae, UniProt W9BNR5 1-223, N188A).
T2 sequence: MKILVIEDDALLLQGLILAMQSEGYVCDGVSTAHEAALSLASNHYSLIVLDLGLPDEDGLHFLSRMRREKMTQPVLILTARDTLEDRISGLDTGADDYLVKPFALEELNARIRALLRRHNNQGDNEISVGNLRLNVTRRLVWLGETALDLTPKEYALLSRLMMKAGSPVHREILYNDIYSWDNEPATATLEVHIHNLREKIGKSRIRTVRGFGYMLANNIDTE
Briefly: fluorescence polarization; BeF3-, Mg2+ (activation); FP: 10 mM sodium phosphate, 15 mM NaCl, pH 7.0, 298 K, 6 nM FAM-DNA; proteins activated with 5.3 mM BeCl2, 35 mM NaF, 7 mM MgCl2. NMR: 20 mM Tris-HCl, 100 mM Na.

In data set [4] the target is T3, PmrA N196A (Klebsiella pneumoniae, UniProt W9BNR5 1-223, N196A).
T3 sequence: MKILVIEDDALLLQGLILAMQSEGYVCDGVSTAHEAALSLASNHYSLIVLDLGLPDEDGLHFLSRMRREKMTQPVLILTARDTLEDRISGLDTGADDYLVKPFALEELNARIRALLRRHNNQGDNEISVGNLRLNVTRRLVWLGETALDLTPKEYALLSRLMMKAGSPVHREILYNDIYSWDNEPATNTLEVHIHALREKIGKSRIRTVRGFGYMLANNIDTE
Described as above.

For data set [5], the target named is T4, PmrA R210A (Klebsiella pneumoniae, UniProt W9BNR5 1-223, R210A).
T4 sequence: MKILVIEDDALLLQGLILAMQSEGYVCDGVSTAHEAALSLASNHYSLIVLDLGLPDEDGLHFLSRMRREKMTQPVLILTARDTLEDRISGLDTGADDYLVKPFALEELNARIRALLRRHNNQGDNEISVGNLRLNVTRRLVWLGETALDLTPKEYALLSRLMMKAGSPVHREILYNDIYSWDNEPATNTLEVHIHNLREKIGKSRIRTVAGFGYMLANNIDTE
Described as above.

For data set [6], the target named is T1, PmrA (double-substitution variant). The description is as above.
Data set [7] has as its target T5, WT-PmrA (Klebsiella pneumoniae, UniProt W9BNR5 1-223).
T5 sequence: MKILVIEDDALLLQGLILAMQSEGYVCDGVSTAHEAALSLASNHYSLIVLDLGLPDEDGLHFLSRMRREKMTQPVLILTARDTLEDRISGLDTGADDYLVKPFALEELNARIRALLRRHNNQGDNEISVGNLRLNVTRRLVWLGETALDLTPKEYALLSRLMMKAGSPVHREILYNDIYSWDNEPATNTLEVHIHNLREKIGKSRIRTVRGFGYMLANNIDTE
Described as above.

For data set [8], the target named is T6, PmrA N176A (Klebsiella pneumoniae, UniProt W9BNR5 1-223, N176A).
T6 sequence: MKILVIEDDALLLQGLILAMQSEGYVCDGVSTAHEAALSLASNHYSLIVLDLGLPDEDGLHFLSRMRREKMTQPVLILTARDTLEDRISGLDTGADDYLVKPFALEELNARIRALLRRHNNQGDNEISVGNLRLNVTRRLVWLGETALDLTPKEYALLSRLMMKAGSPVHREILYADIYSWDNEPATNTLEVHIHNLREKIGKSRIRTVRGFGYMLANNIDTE
Described as above.

In data set [1], “PmrA (double-substitution W181G/I220D variant), BeF3^−-activated (natural protein)” displayed a stoichiometry N of 2.

B1: 26-bp pmra box DNA (crystal) (dsDNA)
DNA 1: ATTTCTTAATATTATCCTAAGCAAGG
DNA 2: CTTGCTTAGGATAATATTAAGAAATC
Take B1: the binding result in data set [2] was “binds”.

B2: 25-bp FAM-labelled DNA (FP) (dsDNA)
DNA 1: ATTTCTTAATATTATCCTAAGCAAG
DNA 2: TTGCTTAGGATAATATTAAGAAATC
Consider B2, for which the Kd was 762 ± 12.3 nM in data set [3]; 399 ± 10.9 nM in data set [4]; 3037 ± 11.7 nM in data set [5]; 201 ± 8.2 nM in data set [6]; 194 ± 7.7 nM in data set [7]; 365 ± 11.6 nM in data set [8].
